Three molecules from article PMC4770209, “Genome-wide binding studies reveal DNA binding specificity mechanisms and functional interplay amongst Forkhead transcription factors” can be followed below.

For data set [1], the target named is T1, FOXK2(228-382) (UniProt Q01167 228-382). Kind of data set: EMSA; competition; labelled WT probe; unlabelled WT competitor 25-200x; EMSA: 75 mM KCl, room temperature 30 min, 5% PAGE in 0.25x TBE at 4 C; pull-down conditions not in material. The note with it: protein: recombinant; tags: 6xHis; label: radioactive label (probe); 5' overhang 4 nt at both ends.
T1 sequence (Q01167 228-382): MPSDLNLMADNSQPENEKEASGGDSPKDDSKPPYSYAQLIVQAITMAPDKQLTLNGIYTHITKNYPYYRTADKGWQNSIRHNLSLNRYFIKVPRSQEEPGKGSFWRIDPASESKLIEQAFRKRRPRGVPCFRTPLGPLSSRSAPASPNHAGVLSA
In data set [2] the target is T2, FOXO3(130-271) (UniProt O43524 130-271). Described as above. The note with it: protein: recombinant; tags: 6xHis; label: radioactive label (probe); 5' overhang 4 nt at both ends.
T2 sequence (O43524 130-271): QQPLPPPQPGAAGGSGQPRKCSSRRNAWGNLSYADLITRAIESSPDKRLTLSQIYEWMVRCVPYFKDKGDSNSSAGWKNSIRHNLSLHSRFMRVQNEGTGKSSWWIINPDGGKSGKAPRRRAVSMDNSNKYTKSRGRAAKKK
In data set [3] the target is T1, FOXK2(228-382). In words: competition; unlabelled competitor 25-200x; competes equally to WT; EMSA: 75 mM KCl, room temperature 30 min, 5% PAGE in 0.25x TBE at 4 C; pull-down conditions not in material. The note with it: protein: recombinant; tags: 6xHis; 5' overhang 4 nt at both ends.
The target in data set [4] is T2, FOXO3(130-271). The description is as above. The note with it: protein: recombinant; tags: 6xHis; 5' overhang 4 nt at both ends.

Positions count from the first letter of the chain named.

B1: CYP27C1 WT (ADS2782/ADS2783) (dsDNA)
DNA 1: CTAGAACATGTTAATGTAAACAAGGAAGCCTG
DNA 2: CTAGCAGGCTTCCTTGTTTACATTAACATGTT
B1: the binding result with FOXK2(228-382) [1] and with FOXO3(130-271) [2] was “binds” in each case.

B2: CYP27C1mut2 (ADS3739/ADS3740) (dsDNA)
DNA 1: B1 DNA 1 with A23G, G24A
DNA 2: B1 DNA 2 with C13T, T14C
For the molecule B2, the binding result in the data set with FOXK2(228-382) [3] and in the data set with FOXO3(130-271) [4] was “binds” each time.

B3: CYP27C1mut1 (ADS3737/ADS3738) (dsDNA)
DNA 1: B1 DNA 1 with A14G, T15G
DNA 2: B1 DNA 2 with A22C, T23C
Regarding B3, in the data set with FOXO3(130-271) [4], the binding result was “binds”.
